Test results as given in patent US20110059504A1 (GENERAL HOSPITAL, published 2011).

T1: human myostatin (human, UniProt O14793 267-375, biotinylated in selections and radioactive assays (site not stated))
T1 construct: Phage ELISA used both unbiotinylated and biotinylated myostatin; also called biotinylated human myostatin; myostatin-biotin
T1 sequence (looked up): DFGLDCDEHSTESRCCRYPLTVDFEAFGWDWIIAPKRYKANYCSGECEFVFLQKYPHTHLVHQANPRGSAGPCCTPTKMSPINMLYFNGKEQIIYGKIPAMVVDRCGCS


Biological target: T1, human myostatin
Assay: radioactive equilibrium binding assay
Protocol: Affinities of selected F13β2 binders to biotinylated myostatin were determined in radioactive equilibrium binding assay (FIGS. 11A and 11B; Table 3). ³⁵S-labeled binder proteins from selection pools and single clones were produced in vitro in a rabbit reticulocyte lysate translation kit (Ambion) and purified on M2-agarose (Sigma). Varying concentrations of biotinylated human myostatin (0-100 nM) or other proteins (protein 1: 100 nM; peptide 1: 250 nM; protein 2: 50 nM) were incubated with a constant concentration of the purified binder protein (1 or 2 nM) at 30° C. for 30 min in buffer B (1×PBS, 0.02% Triton X-100 [pH 7.4]). The receptor-binder complexes were captured by using 25 μl of M280 or Protein A (Dynal) (protein 2) magnetic beads for 10 min at room temperature on a Kingfisher instrument (Thermo Fisher Scientific). The beads were washed five times with 100 μl buffer B, and the amount of ³⁵S-methionine remained on the beads was measured by scintillation counting. Data were analyzed by using the GraphPad Prism software (GraphPad Software, Inc., San Diego, Calif.), fitted with a one-site, nonlinear binding equation. For inhibition assay the binding of ³⁵S-labeled proteins to 20 or 25 nM of biotinylated human myostatin was performed in the presence of varying concentrations of inhibitor (human activin receptor IIB/Fc chimera (R&D Systems, Minneapolis, Minn.) (0-250 nM); protein 1 (100 nM), peptide 1 (250 nM), protein 2 (50 nM); proteins, produced in E. coli, M17, M7, M29, M21, M1-1, WT F13β2 (500 nM)).

Binder | B max [%] | Kd [nM]
39885-A1 (designed binder, group M1-A; also called M1-1 (clone ID)) MTIPEIIIKVRGTQVVGSDMTVIVEFTNPLKETLRNVWVHLDGPGVTRPMKKMFPAIPMNHKVQWEEVVRPWVSGHRKLIASMPQLFHIHVYGELDVQIQRRDYKDDDDK | 67.3 | 21.8
39885-G5 (designed binder, group M1-A; also called M8-L (clone ID)) MTIPEIIIKVRGTQVVGSDMTVIVEFTNPLKETLRNVWVHLDGPGVTRPMKKMFPAIPYLSYVQWEEVVRPWVSGHRKLIASMPQLHHLHVYGELDVQIQRRDYKDDDDK | 59.4 | 28.5
39908-H10 (designed binder, group M2-A50; also called M4 (clone ID)) MTIPEIIIKVRGTQVVGSDMTVIVEFTNPFKETLRSVWVHLDGPGVTRPMKKMFREIPPKTTVQWEEVVRPWVSGHRKLIASMPSLLHLHVYGELDVQIQRRDYKDDDDK | 47.3 | 29.7
39885-F10 (S82C) (designed binder, group M1-A; S82C) MTIPEIIIKVRGTQVVGSDMTVIVEFTNPLKETLRNVWVHLDGPGVTRPMKKMFPAIPMNHKVQWEEVVRPWVSGHRKLIACMPQLFHIHVYGELDVQIQRRDYKDDDDK | 73.7 | 15.4
39885-D11 (designed binder, group M2-A) MTIPEIIIKVRGTQVVGSDMTVIVEFTNPLKETLRNVWVHLDGPGVTRPMKKMFPAIPMNHKVQWEEVVRPWVSGHRKLIASMINHFYKHVYGELDVQIQRRDYKDDDDK | 22.3 | 41
39973-F10 (designed binder, group M1-A) MTIPEIIIKVRGTQVVGSDMTVIVEFTNPLKETLRNVWVHLDGPGVTRPMKKMFATIPPYLPVQWEEVVRPWVSGHRKLIASMPQLIHLHVYGELDVQIQRRDYKDDDDK | 68 | 28.6
39973-C10 (designed binder, group M1-A) MTIPEIIIKVRGTQVVGSDMTVIVEFTNPLKETLRNVWVHLDGPGVTRPMKKMFPTISRFKRVQWEEVVRPWVSGHRKLIASMPQLQHLHVYGELDVQIQRRDYKDDDDK | 72 | 22.8
39633-D3 (V39M) (designed binder, group M2-A50; V39M) MTIPEIIIKVRGTQVVGSDMTVIVEFSNPFKETLRNVWMHLDGPGVTRPMKKMFSEIRPNSTVQWEEVVRPWVSGHRKLIASMPSLLHLHVYGELDVQIQRRDYKDDDDK | 65.8 | 26.2
39633-D2 (designed binder, group M2-A50) MTIPEIIIKVRGTQVVGSDMTVIVEFTNLMKETLRNVWVHLDGPGVTRPMKKMFSEIRPNSTVQWEEVVRPWVSGHRKLIASMPSLLHLHVYGELDVQIQRRDYKDDDDK | 6.74 | 11.2
39885-C11 (designed binder, group M2-A) MTIPEIIIKVRGTQVVGSDMTVIVEFTNPLKETLRNVWVHLDGPGVTRPMKKMFPAIPMNHKVQWEEVVRPWVSGHRKLIASMINYFYKHVYGELDVQIQRRDYKDDDDK | 18.8 | 41.6
39888-A11 (D42N) (designed binder, group M1-A; D42N; also called M14-1 (clone ID); 39888-All(D42N)) MTIPEIIIKVRGTQVVGSDMTVIVEFTNPLKETLRNVWVHLNGPGVTRPMKKMFPAIPMNHKVQWEEVVRPWVSGHRKLIASMPQLFHIHVYGELDVQIQRRDYKDDDDK | 82.4 | 13.6
39633-A1 (designed binder, group M4-A50) MTIPEIIIKVRGTQVVGSDMTVIVEFTNPFKETLRSVWVHLDGPGVTRPMKKMFREIPPNTTVQWEEVVRPWVSGHRKLIASMPTHHLLHVYGELDVQIQRRDYKDDDDK | 63.9 | 25.5
39973-D2 (designed binder, group M3-A) MTIPEIIIKVRGTQVVGSDMTVIVEFYFSPGARLATVWVHLDGPGVTRPMKKMFHSIYVPFWVQWEEVVRPWVSGHRKLIASMTTTVQGHVYGELDVQIQRRDYKDDDDK | 7.66 | 32.9

The remaining binders from weak to strong by Kd, led by results:

B max [%] | Kd [nM] | Binder
33.3 | 140 | 39885-C1 (designed binder, group M2-A) MTIPEIIIKVRGTQVVGSDMTVIVEFTNPLKETLRNVWVHLDGPGVTRPMKKMFPAIPMNHKVQWEEVVRPWVSGHRKLIASMLNHFYKHVYGELDVQIQRRDYKDDDDK
74.8 | 39.9 | 39633-C1 (designed binder, group M1-A50; V91L; also called M17 (clone ID)) MTIPEIIIKVRGTQVVGSDMTVIVEFTNPFKETLRSVWVHLDGPGVTRPMKKMFREIPPKTTVQWEEVVRPWVSGHRKLIASMRTQYLIHLYGELDVQIQRRDYKDDDDK
64.1 | 33.6 | 39633-G5 (designed binder, group M1-A50; V91L) MTIPEIIIKVRGTQVVGSDMTVIVEFTNPFKETLRSVWVHLDGPGVTRPMKKMFSEIRPNSTVQWEEVVRPWVSGHRKLIASMRTQYLIHLYGELDVQIQRRDYKDDDDK
69.2 | 30.8 | 39885-G8 (designed binder, group M1-A; also called M10-3 (clone ID)) MTIPEIIIKVRGTQVVGSDMTVIVEFTNPLKETLRNVWVHLDGPGVTRPMKKMFPTIPMNHKVQWEEVVRPWVSGHRKLIASMPQLFHIHVYGELDVQIQRRDYKDDDDK
49 | 28.4 | 39908-G4 (designed binder, group M2-A50; also called M7 (clone ID)) MTIPEIIIKVRGTQVVGSDMTVIVEFSNPFKETLRNVWVHLDGPGVTRPMKKMFSEIRPNSTVQWEEVVRPWVSGHRKLIASMPSLLHLHVYGELDVQIQRRDYKDDDDK
98.6 | 28.1 | 39885-F8 (designed binder, group M1-A; also called M7-L (clone ID)) MTIPEIIIKVRGTQVVGSDMTVIVEFTNPLKETLRNVWVHLDGPGVTRPMKKMFPAIPMNHKVQWEEVVRPWVSGHRKLIASMPQLFHLHVYGELDVQIQRRDYKDDDDK
60 | 27.8 | 39633-E4 (designed binder, group M2-A50; also called M019 (clone ID)) MTIPEIIIKVRGTQVVGSDMTVIVEFSNPFKETLRNVWVHLDGPGVTRPMKKMFSEIRPDSTVQWEEVVRPWVSGHRKLIASMPSLLHLHVYGELDVQIQRRDYKDDDDK
34.1 | 25.6 | 39908-G12 (designed binder, group M2-A50; also called M10 (clone ID)) MTIPEIIIKVRGTQVVGSDMTVIVEFTNPFKETLRSVWVHLDGPGVTRPMKKMFSEIRPNSTVQWEEVVRPWVSGHRKLIASMPSLLHLHVYGELDVQIQRRDYKDDDDK
72.2 | 25.1 | 39885-B5 (F26V) (designed binder, group M1-A; F26V; also called M2-1 (clone ID)) MTIPEIIIKVRGTQVVGSDMTVIVEVTNPLKETLRNVWVHLDGPGVTRPMKKMFPAIPMNHKVQWEEVVRPWVSGHRKLIASMPQLFHIHVYGELDVQIQRRDYKDDDDK
61.6 | 24.8 | 39633-H6 (M50V) (designed binder, group M2-A50; M50V) MTIPEIIIKVRGTQVVGSDMTVIVEFTNPFKETLRSVWVHLDGPGVTRPVKKMFREIPPKTTVQWEEVVRPWVSGHRKLIASMPSLLHLHVYGELDVQIQRRDYKDDDDK
57.6 | 24.7 | 39885-D8 (K9R) (designed binder, group M1-A; K9R; also called M5-2 (clone ID)) MTIPEIIIRVRGTQVVGSDMTVIVEFTNPLKETLRNVWVHLDGPGVTRPMKKMFPAIPMDHKVQWEEVVRPWVSGHRKLIASMPQLFHIHVYGELDVQIQRRDYKDDDDK
62.7 | 24.1 | 39885-F7 (designed binder, group M1-A) MTIPEIIIKVRGTQVVGSDMTVIVEFTNPLKETLRNVWVHLDGPGVTRPMKKMFPTIPMNHKVQWEEVVRPWVSGHRKLIASMPHLFHIHVYGELDVQIQRRDYKDDDDK
68.4 | 17.4 | 39885-C7 (designed binder, group M1-A; also called M3-1 (clone ID)) MTIPEIIIKVRGTQVVGSDMTVIVEFTNPLKETLRNVWVHLDGPGVTRPMKKMFRAIPMNHKVQWEEVVRPWVSGHRKLIASMPQLFHIHVYGELDVQIQRRDYKDDDDK
24.1 | 14.1 | 39885-H9 (designed binder, group M2-A) MTIPEIIIKVRGTQVVGSDMTVIVEFTNPLKETLRNVWVHLDGPGVTRPMKKMFPAIPMNHKVQWEEVVRPWVSGHRKLIASMINYFYNHVYGELDVQIQRRDYKDDDDK
83.1 | 9.99 | 39888-G5 (S82I) (designed binder, group M1-A; S82I) MTIPEIIIKVRGTQVVGSDMTVIVEFTNPLKETLRNVWVHLDGPGVTRPMKKMFPAIPMNHKVQWEEVVRPWVSGHRKLIAIMPQLFHIHVYGELDVQIQRRDYKDDDDK
1.19 | 7.09 | 39888-B7 (designed binder, group M3-A) MTIPEIIIKVRGTQVVGSDMTVIVEFTNPLKETLRNVWVHLDGPGVTRPMKKMFPAIPMNHKVQWEEVVRPWVSGHRKLIASMNSSSNQHVYGELDVQIQRRDYKDDDDK
